Test system: Escherichia coli TOP10
Experiment: shrunken log2 fold change of peptide-encoding DNA abundance (4.5 h post-induction vs induction); higher = less antimicrobial activity (less host growth inhibition)
Conditions: time post-induction: 4.5 h; library: site-saturation at positions 5, 18, 19, 20
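Note: peptides expressed intracellularly from a pBAD plasmid library in pooled LB shake-flask culture, induced with 0.3% L-arabinose, DNA abundance read by NGS, three biological replicates, DESeq2 with apeglm shrinkage.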

Sequence	shrunken log2 fold change
RRIRWRPPRLPRPRPRPTEAPRP	0.214
RRIRNRPPRLPRPRPRPVTLPRP	-0.3
RRIRCRPPRLPRPRPRPLTLPRP	-0.582
RRIRARPPRLPRPRPRPYVWPRP	0.053
RRIRDRPPRLPRPRPRPYQIPRP	-0.238
RRIRWRPPRLPRPRPRPFAAPRP	0.862
RRIRKRPPRLPRPRPRPARHPRP	1.9
RRIRIRPPRLPRPRPRPFREPRP	-0.0279
RRIRTRPPRLPRPRPRPTPSPRP	0.563
RRIRGRPPRLPRPRPRPWVRPRP	0.151
RRIRYRPPRLPRPRPRPVQYPRP	-0.0125
RRIRVRPPRLPRPRPRPNNGPRP	-0.497
RRIRCRPPRLPRPRPRPKIGPRP	0.0398
RRIRRRPPRLPRPRPRPSKIPRP	0.0224
RRIRERPPRLPRPRPRPRPFPRP	-0.0965
RRIRMRPPRLPRPRPRPNCGPRP	-0.216
RRIRARPPRLPRPRPRPICVPRP	0.154
RRIRSRPPRLPRPRPRPILRPRP	-0.0847
RRIRSRPPRLPRPRPRPFFHPRP	-0.498
RRIRSRPPRLPRPRPRPLSTPRP	-0.369
RRIRFRPPRLPRPRPRPLFDPRP	-0.578
RRIRNRPPRLPRPRPRPVCVPRP	-0.04
RRIRVRPPRLPRPRPRPVSLPRP	0.106
RRIRQRPPRLPRPRPRPNKTPRP	-0.0379
RRIRGRPPRLPRPRPRPQWMPRP	0.115

Sequence	shrunken log2 fold change
RRIRHRPPRLPRPRPRPWPIPRP	-0.00691
RRIRGRPPRLPRPRPRPFLSPRP	0.162
RRIRARPPRLPRPRPRPRIIPRP	0.093
RRIRARPPRLPRPRPRPESSPRP	2.39
RRIRERPPRLPRPRPRPTFAPRP	-0.0119
RRIRWRPPRLPRPRPRPKCCPRP	0.0888
RRIRIRPPRLPRPRPRPPRSPRP	0.272
RRIRCRPPRLPRPRPRPHLFPRP	-0.198
RRIRRRPPRLPRPRPRPRRVPRP	0.347
RRIRTRPPRLPRPRPRPVVDPRP	0.452
RRIRSRPPRLPRPRPRPEREPRP	-0.0693
RRIRDRPPRLPRPRPRPKWVPRP	0.538
RRIRGRPPRLPRPRPRPCRCPRP	0.107
RRIRCRPPRLPRPRPRPRSLPRP	0.197
RRIRDRPPRLPRPRPRPYSYPRP	-0.0279
RRIRDRPPRLPRPRPRPEKGPRP	0.71
RRIRTRPPRLPRPRPRPCKDPRP	0.027
RRIRYRPPRLPRPRPRPSVQPRP	-0.065
RRIRPRPPRLPRPRPRPAQMPRP	0.181
RRIRVRPPRLPRPRPRPWPWPRP	0.197
RRIRVRPPRLPRPRPRPTPAPRP	0.448
RRIRMRPPRLPRPRPRPYKRPRP	-0.0368
RRIRCRPPRLPRPRPRPNSIPRP	-0.314
RRIRRRPPRLPRPRPRPGMLPRP	0.0899
RRIRVRPPRLPRPRPRPCENPRP	-0.0135

Sequence	shrunken log2 fold change
RRIRCRPPRLPRPRPRPNNHPRP	-0.731
RRIRHRPPRLPRPRPRPICNPRP	-0.422
RRIRMRPPRLPRPRPRPKSDPRP	0.466
RRIRQRPPRLPRPRPRPHICPRP	-0.049
RRIRPRPPRLPRPRPRPATCPRP	1.55
RRIRNRPPRLPRPRPRPFVPPRP	-0.263
RRIRYRPPRLPRPRPRPCMNPRP	-0.0223
RRIRYRPPRLPRPRPRPCNNPRP	-0.331
RRIRARPPRLPRPRPRPQSGPRP	-0.0719
RRIRYRPPRLPRPRPRPRAWPRP	-0.214
RRIRMRPPRLPRPRPRPYPFPRP	-0.0613
RRIRHRPPRLPRPRPRPELGPRP	-0.101
RRIRFRPPRLPRPRPRPTSPPRP	0.194
RRIRTRPPRLPRPRPRPVGLPRP	-0.00734
RRIRVRPPRLPRPRPRPKEVPRP	0.177
RRIRLRPPRLPRPRPRPFVIPRP	-0.214
RRIRWRPPRLPRPRPRPWNSPRP	0.0293
RRIRTRPPRLPRPRPRPMTVPRP	-0.294
RRIRFRPPRLPRPRPRPQIYPRP	-1.01
RRIRLRPPRLPRPRPRPAERPRP	0.139
RRIRVRPPRLPRPRPRPEVVPRP	-0.0305
RRIRQRPPRLPRPRPRPPNCPRP	0.0242
RRIRGRPPRLPRPRPRPCVQPRP	0.523
RRIRPRPPRLPRPRPRPHLTPRP	0.185
RRIRVRPPRLPRPRPRPRNAPRP	0.225

Sequence	shrunken log2 fold change
RRIRSRPPRLPRPRPRPQKKPRP	-0.0597
RRIRHRPPRLPRPRPRPLDVPRP	0.0138
RRIRFRPPRLPRPRPRPFQDPRP	0.0171
RRIRDRPPRLPRPRPRPMVVPRP	-0.0202
RRIRMRPPRLPRPRPRPEMAPRP	3.69
RRIRWRPPRLPRPRPRPLKEPRP	-0.0713
RRIRCRPPRLPRPRPRPWVHPRP	-0.169
RRIRWRPPRLPRPRPRPEFCPRP	0.335
RRIRYRPPRLPRPRPRPQCYPRP	-0.0301
RRIRNRPPRLPRPRPRPELVPRP	0.391
RRIRYRPPRLPRPRPRPMMNPRP	-0.367
RRIRRRPPRLPRPRPRPWGQPRP	0.0104
RRIRGRPPRLPRPRPRPKPHPRP	0.854
RRIRFRPPRLPRPRPRPYQDPRP	-0.151
RRIRDRPPRLPRPRPRPPMMPRP	-0.0737
RRIRIRPPRLPRPRPRPMQMPRP	-0.52
RRIRRRPPRLPRPRPRPRRQPRP	0.554
RRIRSRPPRLPRPRPRPIFAPRP	0.192
RRIRRRPPRLPRPRPRPPYMPRP	0.315
RRIRWRPPRLPRPRPRPRNGPRP	0.401
RRIRARPPRLPRPRPRPLQHPRP	1.22
RRIRCRPPRLPRPRPRPQPIPRP	-0.335
RRIRIRPPRLPRPRPRPYPDPRP	-0.039
RRIRSRPPRLPRPRPRPQFTPRP	-0.714
RRIRHRPPRLPRPRPRPCFLPRP	-0.0717

Sequence	shrunken log2 fold change
RRIRPRPPRLPRPRPRPKVQPRP	0.327
RRIRDRPPRLPRPRPRPWDGPRP	-0.0761
RRIRTRPPRLPRPRPRPISQPRP	-0.0474
RRIRYRPPRLPRPRPRPHNLPRP	-0.131
RRIRQRPPRLPRPRPRPYERPRP	0.074
RRIRKRPPRLPRPRPRPERGPRP	0.443
RRIRNRPPRLPRPRPRPLFMPRP	-0.235
RRIRVRPPRLPRPRPRPLCQPRP	0.258
RRIRTRPPRLPRPRPRPAMQPRP	-0.00933
RRIRLRPPRLPRPRPRPPHAPRP	1.2
RRIRQRPPRLPRPRPRPPGVPRP	0.462
RRIRGRPPRLPRPRPRPRWGPRP	0.852
RRIRHRPPRLPRPRPRPNNQPRP	-0.465
RRIRSRPPRLPRPRPRPMWAPRP	0.00731
RRIRARPPRLPRPRPRPCHQPRP	-0.34
RRIRQRPPRLPRPRPRPPEGPRP	0.228
RRIRSRPPRLPRPRPRPMAGPRP	0.119
RRIRIRPPRLPRPRPRPRQYPRP	-0.258
RRIRFRPPRLPRPRPRPRPMPRP	0.856
RRIRGRPPRLPRPRPRPTDNPRP	0.283
RRIRLRPPRLPRPRPRPAEKPRP	-0.0786
RRIRCRPPRLPRPRPRPVGRPRP	0.422
RRIRWRPPRLPRPRPRPACAPRP	0.766
RRIRERPPRLPRPRPRPKILPRP	-0.0994
RRIRDRPPRLPRPRPRPGACPRP	0.23

Sequence	shrunken log2 fold change
RRIRERPPRLPRPRPRPKVEPRP	-0.0672
RRIRWRPPRLPRPRPRPLWRPRP	3.71
RRIRQRPPRLPRPRPRPLSIPRP	-0.325
RRIRERPPRLPRPRPRPEPAPRP	0.428
RRIRPRPPRLPRPRPRPVGCPRP	1.56
RRIRQRPPRLPRPRPRPAEIPRP	-0.219
RRIRKRPPRLPRPRPRPFDDPRP	-0.131
RRIRERPPRLPRPRPRPNCAPRP	0.172
RRIRQRPPRLPRPRPRPQCNPRP	-0.0983
RRIRPRPPRLPRPRPRPMGNPRP	-0.0876
RRIRMRPPRLPRPRPRPHNCPRP	-0.0504
RRIRYRPPRLPRPRPRPTQPPRP	0.409
RRIRTRPPRLPRPRPRPTAHPRP	0.0803
RRIRERPPRLPRPRPRPSCHPRP	-0.934
RRIRFRPPRLPRPRPRPFRIPRP	-0.687
RRIRGRPPRLPRPRPRPYEQPRP	-0.157
RRIRARPPRLPRPRPRPNYHPRP	-0.425
RRIRDRPPRLPRPRPRPIFQPRP	0.242
RRIRFRPPRLPRPRPRPEDQPRP	0.502
RRIRERPPRLPRPRPRPRENPRP	-0.362
RRIRIRPPRLPRPRPRPTVYPRP	-0.177
RRIRLRPPRLPRPRPRPPEIPRP	0.196
RRIRKRPPRLPRPRPRPTGGPRP	0.13
RRIRTRPPRLPRPRPRPQSEPRP	-0.141
RRIRMRPPRLPRPRPRPSPHPRP	0.18

Reference: the supplement of paper PMC9112550, “Optimization of the antimicrobial peptide Bac7 by deep mutational scanning” (BMC Biology, 2022)
